In publication PMC10042821, “Cryo-EM structure of human eIF5A-DHS complex reveals the molecular basis of hypusination-associated neurodegenerative disorders” (Nature Communications, 2023) one finds Kd data, which are given here for one molecule.

Where a chain is given by its changes, count along the chain named.

Common to all, as to test: MST; His-tagged DHS variants labelled with RED-tris-NTA 2nd Generation, 8.32 nM; eIF5A titrated, sixteen dilutions 0.00175–57.5 μM; 50 mM Tris, 200 mM NaCl, 5 mM β-ME pH 8; Monolith NT.115, 40% excitation power, 60% MST power; no NAD or SPD
Holding throughout (settings): both partners purified

Experiment [1] addresses T1, deoxyhypusine synthase L295A, His-tagged (human, UniProt P49366 1-369, L295A, RED-tris-NTA 2nd Generation dye on the His tag).
T1 construct: human deoxyhypusine synthase, Uniprot P49366, residues 1-369, site-directed mutant of the pET24d full-length construct; also called DHS L295A; source: E. coli, purified; not shown: 6xHis, N-terminal, kept
T1 sequence (looked up): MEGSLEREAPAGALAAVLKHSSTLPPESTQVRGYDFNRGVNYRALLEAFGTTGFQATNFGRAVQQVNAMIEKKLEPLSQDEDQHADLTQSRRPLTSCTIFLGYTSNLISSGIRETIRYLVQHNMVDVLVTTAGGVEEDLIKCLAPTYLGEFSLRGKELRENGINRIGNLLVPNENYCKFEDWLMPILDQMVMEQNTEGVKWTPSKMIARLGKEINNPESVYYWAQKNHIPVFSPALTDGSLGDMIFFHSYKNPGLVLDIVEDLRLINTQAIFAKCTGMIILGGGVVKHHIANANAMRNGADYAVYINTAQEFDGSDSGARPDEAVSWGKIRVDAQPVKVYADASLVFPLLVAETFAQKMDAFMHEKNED

Experiment [2] addresses T2, deoxyhypusine synthase E137A, His-tagged (human, UniProt P49366 1-369, E137A, RED-tris-NTA 2nd Generation dye on the His tag).
T2 construct: human deoxyhypusine synthase, Uniprot P49366, residues 1-369, site-directed mutant of the pET24d full-length construct; also called DHS E137A; source: E. coli, purified; not shown: 6xHis, N-terminal, kept
T2 sequence (looked up): T1 sequence (looked up) with E137A, A295L

The target of experiment [3] is T3, deoxyhypusine synthase Y176A, His-tagged (human, UniProt P49366 1-369, Y176A, RED-tris-NTA 2nd Generation dye on the His tag).
T3 construct: human deoxyhypusine synthase, Uniprot P49366, residues 1-369, site-directed mutant of the pET24d full-length construct; also called DHS Y176A; source: E. coli, purified; not shown: 6xHis, N-terminal, kept
T3 sequence (looked up): T1 sequence (looked up) with Y176A, A295L

Experiment [4] deals with T4, deoxyhypusine synthase F247A, His-tagged (human, UniProt P49366 1-369, F247A, RED-tris-NTA 2nd Generation dye on the His tag).
T4 construct: human deoxyhypusine synthase, Uniprot P49366, residues 1-369, site-directed mutant of the pET24d full-length construct; also called DHS F247A; source: E. coli, purified; not shown: 6xHis, N-terminal, kept
T4 sequence (looked up): T1 sequence (looked up) with F247A, A295L

B1: eukaryotic translation factor 5A (eIF5A-1), residues 15-151 (domain or fragment)
chain: not shown
notes: human eIF5A1, residues 15-151, from pET28-MHL (Addgene); The purification protocol removes the tag with TEV; source: E. coli, purified (HisTrap, TEV cleavage, reverse HisTrap, SEC); not shown: His tag, N-terminal, cleaved
Usually Kd stands for the free concentration of one partner at which half of the binding sites on the other are occupied at equilibrium, for simple one-to-one binding. A low value points to a tighter complex. Take B1: the Kd in experiment [1] is 393 ± 107 nM; in experiment [2], 2550 ± 880 nM; in experiment [3] it was 1090 ± 548 nM; in experiment [4], over 5000 nM.
